In patent US20260273049A1 (ALLIGATOR BIOSCIENCE, published 2026):

Legend:
[1] = target: human CD40 expressed on cells (CD40 reporter cells, HEK Blue CD40L cells, B cells, Raji cells) (human, UniProt P25942 21-277); test: cell-based or functional assay
[2] = target: T1, human CEACAM1 (hCEACAM-1, #2244-CM-050, R&D Systems) (human, UniProt P13688 35-428); test: ELISA; antigen coated at 0.5 µg/mL, bsAb titrated, anti-human kappa-HRP, luminescence [5/7) Multi44]
T1 construct: Bought protein
T1 sequence (looked up): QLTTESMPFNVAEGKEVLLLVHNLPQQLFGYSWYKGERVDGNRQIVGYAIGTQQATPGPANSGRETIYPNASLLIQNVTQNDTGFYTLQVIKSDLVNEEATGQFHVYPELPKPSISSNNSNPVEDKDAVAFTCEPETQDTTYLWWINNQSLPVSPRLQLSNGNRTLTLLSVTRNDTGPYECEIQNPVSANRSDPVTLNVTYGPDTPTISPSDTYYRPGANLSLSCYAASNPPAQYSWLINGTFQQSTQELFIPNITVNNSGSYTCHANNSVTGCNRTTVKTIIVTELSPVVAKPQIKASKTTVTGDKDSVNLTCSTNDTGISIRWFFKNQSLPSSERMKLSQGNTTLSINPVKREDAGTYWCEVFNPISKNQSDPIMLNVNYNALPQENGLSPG
Experimental: (§1) 96-well plates were coated with 0.5 μg/mL antigen, hCEACAM-1 (2244-CM-050, R&D Systems), hCEACAM-5 (4128-CM-050, R&D Systems), hCEACAM-6 (3934-CM-050, R&D Systems) or CEACAM-8 (9639-CM-050, R&D Systems) in PBS over night at 4° C. After washing in PBS/0.05% Tween 20 (PBST), the plates were blocked with PBST, 2% BSA for at least 30 minutes at room temperature before a second round of washing. RUBY bsAbs, diluted in PBST, 0.5% BSA, were then added and allowed to bind for at least 1 hour at room temperature. […] Finally, a final round of washing was performed and bound complexes detected using SuperSignal Pico Luminescent as substrate and luminescence signals were measured using Fluostar Optima.

[3] = target: T2, human CEACAM6 (hCEACAM-6, #3934-CM-050, R&D Systems) (human, UniProt P40199 35-320); test: as above
T2 construct: Bought protein
T2 sequence (looked up): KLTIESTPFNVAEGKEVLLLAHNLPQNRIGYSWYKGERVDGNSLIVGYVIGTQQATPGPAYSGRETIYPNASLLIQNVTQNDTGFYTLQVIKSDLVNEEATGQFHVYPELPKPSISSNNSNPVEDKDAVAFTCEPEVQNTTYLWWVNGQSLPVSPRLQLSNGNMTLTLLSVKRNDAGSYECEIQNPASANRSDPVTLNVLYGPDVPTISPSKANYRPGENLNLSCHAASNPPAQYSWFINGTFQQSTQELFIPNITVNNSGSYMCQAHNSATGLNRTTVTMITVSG
Experimental: as §1

[4] = target: T3, human CEACAM1 expressed on CHO cells (human, UniProt P13688 35-526); test: flow cytometry on CEACAM1-transfected CHO cells, fluorochrome-conjugated anti-human IgG [1/2) B]
T3 construct: whole, on cells; also called CHO-CEACAM1; CEACAM1 on cells
T3 sequence (looked up): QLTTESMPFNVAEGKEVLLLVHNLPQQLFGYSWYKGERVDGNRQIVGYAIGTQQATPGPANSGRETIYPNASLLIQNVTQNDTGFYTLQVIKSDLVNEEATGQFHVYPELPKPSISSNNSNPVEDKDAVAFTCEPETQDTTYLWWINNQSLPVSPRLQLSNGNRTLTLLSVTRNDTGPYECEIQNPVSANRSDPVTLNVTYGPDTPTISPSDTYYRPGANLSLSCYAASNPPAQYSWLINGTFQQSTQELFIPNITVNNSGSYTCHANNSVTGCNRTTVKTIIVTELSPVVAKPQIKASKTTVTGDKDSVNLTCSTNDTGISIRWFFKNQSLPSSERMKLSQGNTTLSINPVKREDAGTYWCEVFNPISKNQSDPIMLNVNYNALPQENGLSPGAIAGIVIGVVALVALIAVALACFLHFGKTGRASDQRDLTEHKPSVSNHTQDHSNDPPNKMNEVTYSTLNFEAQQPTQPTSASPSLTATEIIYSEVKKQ
From the text: The human CEACAM5 and CEACAM1 genes were cloned into pcDNA3.1, and the vector was subsequently stably transfected into CHO cells. […] Binding of the antibodies was detected using fluorochrome-conjugated anti-human IgG and analyzed using flow cytometry.

human CD40 expressed on cells (CD40 reporter cells, HEK Blue CD40L cells, B cells, Raji cells), sequence (P25942 21-277): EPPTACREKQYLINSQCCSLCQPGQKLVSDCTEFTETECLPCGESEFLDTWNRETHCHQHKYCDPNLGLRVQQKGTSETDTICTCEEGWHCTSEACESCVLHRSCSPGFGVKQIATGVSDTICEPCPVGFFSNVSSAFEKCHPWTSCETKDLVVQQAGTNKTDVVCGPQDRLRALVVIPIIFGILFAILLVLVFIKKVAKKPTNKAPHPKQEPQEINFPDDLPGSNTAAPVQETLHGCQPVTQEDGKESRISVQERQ

- EC50 (nM), HEK Blue CD40L SEAP reporter, CHO-CEACAM5 crosslinking, 0 Raji sink cells/well [1]: 0.02 nM
- EC50 (nM), HEK Blue CD40L SEAP reporter, CHO-CEACAM5 crosslinking, 10 000 Raji sink cells/well [1]: 0.05 nM
- EC50 (nM), HEK Blue CD40L SEAP reporter, CHO-CEACAM5 crosslinking, 30 000 Raji sink cells/well [1]: 0.08 nM
- EC50 (nM), HEK Blue CD40L SEAP reporter, CHO-CEACAM5 crosslinking, 90 000 Raji sink cells/well [1]: 0.16 nM
- binding result [2]: no binding (tested: 100 nM)
- binding result [3]: no binding (tested: 100 nM)
- binding result [4]: no binding (tested: 400 nM)
B1: Multi44 (bispecific antibody)
heavy 1: not shown
light: DIQMTQSPSSLSASVGDRVTITCRASQSISSYLNWYQEKPGKAPKLLIYAASSLQSGVPSRFSGSGSGTDFTLTISSLQPEDFATYYCQQWGYLLTFGQGTKLEIKRTVAAPSVFIFPPSDEQLKSGTASVVCYLNNFYPREAKVQWKVDNALQSGNSQESVTEQDSKDSTYSLWSTLTLSKADYEKHKVYACEVTHQGLSSPVTKSFNRGEC
heavy 2: EVQLLESGGGLVQPGGSLRLSCAASGFTFSTYGMHWVREAPGKGLEWLSYISGGSSYIFYADSVKGRFTISRDNSKNTLYLQMNSLRAEDTAVYYCARILRGGSGMDLWGQGTLVTVSSASTKGPSVFPLAPSSKSTSGGTAALGCLVKDYFPEPVTVSWNSGALTSGVHTFPAVLQSSGLYSLTSVVEVPSSSLGTQTYICNVNHKPSNTKVDKKVEPKSC
notes: Optimized RUBY format; copies: 2 + 2 + 2
